T1: HA-MLC1-S280L-Bir* (human (by the printed GeneID 23209; the …, UniProt Q15049 1-377, S280L)
T1 construct: MLC1, GeneID 23209, disease-causing variant S280L, as a chimera with Bir*; also called SL-b
T1 sequence (looked up): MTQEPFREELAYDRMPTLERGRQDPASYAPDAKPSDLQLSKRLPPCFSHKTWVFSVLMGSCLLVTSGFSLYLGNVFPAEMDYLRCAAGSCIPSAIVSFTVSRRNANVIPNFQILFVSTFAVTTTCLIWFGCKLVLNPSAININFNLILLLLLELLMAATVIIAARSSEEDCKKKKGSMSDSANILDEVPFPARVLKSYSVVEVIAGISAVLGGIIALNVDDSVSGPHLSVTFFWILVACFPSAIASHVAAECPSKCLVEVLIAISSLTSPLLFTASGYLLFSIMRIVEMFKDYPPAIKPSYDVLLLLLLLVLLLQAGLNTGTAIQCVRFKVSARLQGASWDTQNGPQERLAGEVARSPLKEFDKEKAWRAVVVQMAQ


What was measured:
[1] = target: mutants (MLC1 mutants of Fig. 3A); assay: co-IP; cell surface immunoprecipitation (cs-IP): anti-GlialCAM Ab bound to live HeLa cells 45 min on ice, unbound Ab washed off, lysis (0.4% NP-40 in co-IP assays), MLC1/GlialCAM complex precipitated, Western blot; signals normalised to precipitated MLC1; for Fig. 7G cells with siUbr1 or siNT and Flag-Ubr1-wt or -CI
HA-MLC1-S280L-Bir* = target: T1, HA-MLC1-S280L-Bir*; assay: proximity labelling; proximity biotinylation with MLC1-Bir* chimera as bait, 50 µM biotin, cs-IP with anti-GlialCAM Ab, biotinylated proteins recovered on streptavidin/neutravidin beads, Western blot for Ubr1; normalised for the PM amount of MLC1; details: partners not purified

CHIP (C-terminus of Hsc70-interacting protein), sequence (Q9UNE7 whole entry): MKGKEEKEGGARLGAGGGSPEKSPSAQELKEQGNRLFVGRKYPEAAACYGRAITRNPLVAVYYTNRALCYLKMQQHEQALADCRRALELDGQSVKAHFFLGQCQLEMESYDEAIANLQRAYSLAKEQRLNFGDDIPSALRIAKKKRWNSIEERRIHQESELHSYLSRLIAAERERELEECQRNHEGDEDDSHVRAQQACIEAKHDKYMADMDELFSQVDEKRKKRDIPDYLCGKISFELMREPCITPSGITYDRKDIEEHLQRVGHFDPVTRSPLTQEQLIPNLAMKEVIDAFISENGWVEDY

Row | Molecule | fold association against MLC1-wt [1] | fold biotinylation against MLC1-wt (HA-MLC1-S280L-Bir*)
1 | CHIP (C-terminus of Hsc70-interacting protein) (from UniProt Q9UNE7 1-303) | 2 to 5 fold | 
2 | endogenous Ubr1 (enzyme, UniProt Q8IWV7 1-1749, looked up, biotinylated in cells by MLC1-Bir*, Ubr1, endogenous, detected with anti-Ubr1 (Abcam)) MADEEAGGTERMEISAELPQTPQRLASWWDQQVDFYTAFLHHLAQLVPEIYFAEMDPDLEKQEESVQMSIFTPLEWYLFGEDPDICLEKLKHSGAFQLCGRVFKSGETTYSCRDCAIDPTCVLCMDCFQDSVHKNHRYKMHTSTGGGFCDCGDTEAWKTGPFCVNHEPGRAGTIKENSRCPLNEEVIVQARKIFPSVIKYVVEMTIWEEEKELPPELQIREKNERYYCVLFNDEHHSYDHVIYSLQRALDCELAEAQLHTTAIDKEGRRAVKAGAYAACQEAKEDIKSHSENVSQHPLHVEVLHSEIMAHQKFALRLGSWMNKIMSYSSDFRQIFCQACLREEPDSENPCLISRLMLWDAKLYKGARKILHELIFSSFFMEMEYKKLFAMEFVKYYKQLQKEYISDDHDRSISITALSVQMFTVPTLARHLIEEQNVISVITETLLEVLPEYLDRNNKFNFQGYSQDKLGRVYAVICDLKYILISKPTIWTERLRMQFLEGFRSFLKILTCMQGMEEIRRQVGQHIEVDPDWEAAIAIQMQLKNILLMFQEWCACDEELLLVAYKECHKAVMRCSTSFISSSKTVVQSCGHSLETKSYRVSEDLVSIHLPLSRTLAGLHVRLSRLGAVSRLHEFVSFEDFQVEVLVEYPLRCLVLVAQVVAEMWRRNGLSLISQVFYYQDVKCREEMYDKDIIMLQIGASLMDPNKFLLLVLQRYELAEAFNKTISTKDQDLIKQYNTLIEEMLQVLIYIVGERYVPGVGNVTKEEVTMREIIHLLCIEPMPHSAIAKNLPENENNETGLENVINKVATFKKPGVSGHGVYELKDESLKDFNMYFYHYSKTQHSKAEHMQKKRRKQENKDEALPPPPPPEFCPAFSKVINLLNCDIMMYILRTVFERAIDTDSNLWTEGMLQMAFHILALGLLEEKQQLQKAPEEEVTFDFYHKASRLGSSAMNIQMLLEKLKGIPQLEGQKDMITWILQMFDTVKRLREKSCLIVATTSGSESIKNDEITHDKEKAERKRKAEAARLHRQKIMAQMSALQKNFIETHKLMYDNTSEMPGKEDSIMEEESTPAVSDYSRIALGPKRGPSVTEKEVLTCILCQEEQEVKIENNAMVLSACVQKSTALTQHRGKPIELSGEALDPLFMDPDLAYGTYTGSCGHVMHAVCWQKYFEAVQLSSQQRIHVDLFDLESGEYLCPLCKSLCNTVIPIIPLQPQKINSENADALAQLLTLARWIQTVLARISGYNIRHAKGENPIPIFFNQGMGDSTLEFHSILSFGVESSIKYSNSIKEMVILFATTIYRIGLKVPPDERDPRVPMLTWSTCAFTIQAIENLLGDEGKPLFGALQNRQHNGLKALMQFAVAQRITCPQVLIQKHLVRLLSVVLPNIKSEDTPCLLSIDLFHVLVGAVLAFPSLYWDDPVDLQPSSVSSSYNHLYLFHLITMAHMLQILLTVDTGLPLAQVQEDSEEAHSASSFFAEISQYTSGSIGCDIPGWYLWVSLKNGITPYLRCAALFFHYLLGVTPPEELHTNSAEGEYSALCSYLSLPTNLFLLFQEYWDTVRPLLQRWCADPALLNCLKQKNTVVRYPRKRNSLIELPDDYSCLLNQASHFRCPRSADDERKHPVLCLFCGAILCSQNICCQEIVNGEEVGACIFHALHCGAGVCIFLKIRECRVVLVEGKARGCAYPAPYLDEYGETDPGLKRGNPLHLSRERYRKLHLVWQQHCIIEEIARSQETNQMLFGFNWQLL |  | ~8 fold
